Results on 5 molecules are retold here after patent publication US20040076995A1, “Nurr1 transcription factor 1-box mutants having monomeric transcriptional activation activity” (priority 2001, published 2004).

Data set [1] relates to Nurr1-RXR heterodimer. As to the kind of experiment: Nurr1-RXR heterodimer-mediated transactivation, βRE luciferase reporter in JEG3 cells. The class given is cell-based, human. As to conditions: βRE-tk luciferase reporter, RXR ligand SR11237 1 μM, effect of the mutation vs wild-type Nurr1. As for the experimental part:
The wild-type and mutated Nurr1 derivatives were transfected in JEG3 cells. The ability to transactivate was assessed using a luciferase reporter gene driven by three copies of the hRARβ2 promoter RARE (βRE) upstream of a thymidine kinase promoter.
The influence of the I-box mutations on Nurr1 transcriptional activity and on the ability to interact with RXR was examined as described by Perlmann and Jansson 1995, Zetterström et al. 1996, and Castro et al. 1999. Nurr1-RXR heterodimer-mediated transactivation was studied in human chorion carcinoma JEG3 cells. The cells were maintained in minimum essential medium supplemented with 10% fetal calf serum. Transfections were performed in quadruplicates in 24-well plates using the calcium phosphate precipitation method. The cells were plated 24 h prior to the transfection. Each well was transfected with 100 ng of the expression vector for the Nurr1 variants, 100 ng of a reporter plasmid, and 200 ng of βgalactoside plasmid that was used as an internal control for transfection efficiency. The luciferase reporter used was driven by three copies of the retinoid acid response element (RARE) of the human retinoid acid receptorβ2 (hRARβ2) gene promoter (βRE) upstream of the thymidine kinase promoter. 6-8 hours after transfection, the cells received fresh medium supplemented with 10% charcoal-stripped fetal calf,serum and RXR ligand (SR11237;1 μM). The cells were harvested 24 hours late and lysed. The cells extracts were assayed for luciferase and βgalactosidase activity. The ability of the Nurr1 mutants to interact with RXR was examined using the mammalian two-hybrid assay. The ligand-binding domains (amino acids 353-598; LBD) of both wild-type and mutated Nurr1 variants were cloned in frame with the yeast Gal4 DNA-binding domain (amino acids 1-147) in the pCMX-Gal4 expression vector (Perlmann and Jansson 1995). JEG3 cells were cotransfected with pCMX-Gal4-Nurr1-LBD derivatives and pCMX-VP16-RXR containing the herpes simplex VP16 trans-activation domain followed by the complete coding sequence of human RXRα. A reporter gene with four copies of the Gal4-binding sites was used.
A general note: Reporter assays use an easily measured gene product as a stand-in for the process of interest.

The subject of data set [2] is NGFI-B response element (NBRE) reporter. Description: Monomeric reporter gene activation, NBRE reporter in 293 cells (full-length receptor). The class given is cell-based, human. The note with it: three copies of NBRE reporter, effect of the mutation vs wild-type Nurr1. As for the experimental part: The monomeric activity was examined in 293 cells. The full-length receptor derivatives were studied using a reporter gene regulated by three copies of the NGFI-B binding site (NBRE; FIG. A).
The ability of the mutants to activate reporter gene expression as monomers were studied in human embryonic kidney 293 cells. The cells were maintained in Dulbecco's modified Eagles medium with 10% fetal calf serum. Transfections were carried out as with JEG3 cells except that a reporter regulated by three copies of the NGFI-B (nerve growth factor inducible-B)response element (Wilson et al., 1991) (NBREs) was used. The transcriptional activities of the mutated ligand-binding domains were assessed as fusions to the Gal4 DNA-binding domain and a reporter gene with four copies of the Gal4-binding sites was used. All the transfection experiments were performed in quadruplicate dishes and each experiment has been repeated at least twice with essentially identical results. The results of a representative experiment are shown.

For data set [3], the target named is Nurr1 P560A (Mus musculus, UniProt Q06219 Q06219:1-598, P560A). As to the kind of experiment: EMSA; monomeric DNA binding not influenced; betaRE is the only probe described. The note with it: label: 32P (Klenow fill-in). As for the experimental part:
(§1) The DNA-binding experiments were carried out as described by Castro et al. 1999. Briefly, Nurr1 and RXR proteins for gel mobility shift assays were produced by coupled in vitro transcription and translation in reticulocyte lysates according to the manufacturer's instructions (TNT Quick Coupled Trans cription/Translation System™; Promega). The proteins were incubated in a binding buffer containing 10 mM Tris (pH 8.0), 40 mM KCI, 0.05% NP-40, 6% glycerol, 1 mM DTT, 0.2mg poly(dI-dC) and protease inhibitors. βRE-probe (agcttaagg[…]ctcgcat; SEQ ID NO:9) was labelled with ³²P by fill-in reaction using Klenow fragment. After addition of the probe, the reactions were incubated on ice for 20 min. Protein-DNA complexes were resolved by electrophoresis on 4% non-denaturating polyacrylamide gel in 0.5×TBE. After electrophoresis, the gels were dried for autoradiography.
Background: Mobility shift assays separate free from complexed probe on a gel.

Data set [4] concerns the target Nurr1 GKL(557-559)AAA (Mus musculus, UniProt Q06219 Q06219:1-598, G557A,K558A,L559A). Described as above. The note with it: label: 32P (Klenow fill-in). As for the experimental part:
as §1

Data set [5] concerns the target Nurr1 PEL(560-562)AAA (Mus musculus, UniProt Q06219 Q06219:1-598, P560A,E561A,L562A). Described as above. As to conditions: label: 32P (Klenow fill-in). How it is done: as §1
The target of data set [6] is Nurr1 KLL(554-556)AAA (Mus musculus, UniProt Q06219 Q06219:1-598, K554A,L555A,L556A). The description is as above. The note with it: label: 32P (Klenow fill-in). As for the experimental part: as §1
The target of data set [7] is Nurr1 wild type/RXR heterodimer (Mus musculus / Homo sapiens?, UniProt Q06219;P19793 Q06219:1-598,P19793:1-462). As to the kind of experiment: EMSA; heterodimer; 10 mM Tris pH 8.0, 40 mM KCl, poly(dI-dC), on ice. As to conditions: label: 32P (Klenow fill-in). How it is done: as §1
Data set [8] has as its target Nurr1 P560A + RXR (Mus musculus / Homo sapiens?, UniProt Q06219;P19793 Q06219:1-598,P19793:1-462, Nurr1 P560A). Description: EMSA; no heterodimer on DNA; monomeric binding retained. As to conditions: label: 32P (Klenow fill-in). As for the experimental part:
as §1

The target of data set [9] is Nurr1 PEL(560-562)AAA + RXR (Mus musculus / Homo sapiens?, UniProt Q06219;P19793 Q06219:1-598,P19793:1-462, Nurr1 P560A,E561A,L562A). The data set is described as above. As to conditions: label: 32P (Klenow fill-in). As for the experimental part:
as §1

Data set [10] addresses T1, VP16-RXR (herpes simplex VP16 trans-activation domain followed by the complete coding sequence of human RXRα) (herpes simplex; human, UniProt P19793 1-462).
T1 construct: Two-hybrid prey, expressed in JEG3 cells; also called pCMX-VP16-RXR
T1 sequence: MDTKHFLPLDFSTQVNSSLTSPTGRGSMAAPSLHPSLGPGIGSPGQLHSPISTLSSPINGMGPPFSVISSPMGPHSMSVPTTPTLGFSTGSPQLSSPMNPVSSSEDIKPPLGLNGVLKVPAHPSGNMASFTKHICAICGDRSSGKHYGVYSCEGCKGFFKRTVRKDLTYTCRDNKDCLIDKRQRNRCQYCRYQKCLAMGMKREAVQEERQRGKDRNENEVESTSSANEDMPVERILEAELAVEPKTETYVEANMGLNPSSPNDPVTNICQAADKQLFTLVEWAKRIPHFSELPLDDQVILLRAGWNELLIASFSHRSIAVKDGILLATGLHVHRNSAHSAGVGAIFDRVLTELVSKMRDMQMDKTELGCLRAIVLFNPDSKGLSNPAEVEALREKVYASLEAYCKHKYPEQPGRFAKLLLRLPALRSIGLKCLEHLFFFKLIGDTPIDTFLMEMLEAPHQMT
Description: mammalian two-hybrid assay, JEG3 cells.

B1: P560A: mouse Nurr1 I-box mutant, Pro560 substituted by alanine (protein)
chain: MPCVQAQYGSSPQGASPASQSYSYHSSGEYSSDFLTPEFVKFSMDLTNTEITATTSLPSFSTFMDNYSTGYDVKPPCLYQMPLSGQQSSIKVEDIQMHNYQQHSHLPPQSEEMMPHSGSVYYKPSSPPTPSTPSFQVQHSPMWDDPGSLHNFHQNYVATTHMIEQRKTPVSRLSLFSFKQSPPGTPVSSCQMRFDGPLHVPMNPEPAGSHHVVDGQTFAVPNPIRKPASMGFPGLQIGHASQLLDTQVPSPPSRGSPSNEGLCAVCGDNAACQHYGVRTCEGCKGFFKRTVQKNAKYVCLANKNCPVDKRRRNRCQYCRFQKCLAVGMVKEVVRTDSLKGRRGRLPSKPKSPQDPSPPSPPVSLISALVRAHVDSNPAMTSLDYSRFQANPDYQMSGDDTQHIQQFYDLLTGSMEIIRGWAEKIPGFADLPKADQDLLFESAFLELFVLRLAYRSNPVEGKLIFCNGVVLHRLQCVRGFGEWIDSIVEFSSNLQNMNIDISAFSCIAALAMVTERHGLKEPKRVEELQNKIVNCLKDHVTFNNGGLNRPNYLSKLLGKLAELRTLCTQGLQRIFYLKLEDLVPPPAIIDKLFLDTLPF
In the case of B1, the “ability of Nurr1 to promote RXR-mediated transactivation” value in data set [1] is reported as “abolished”. Further, in data set [2], the “ability to activate reporter gene expression as monomers (monomeric activity)” value is listed as “no effect”.

B2: betaRE probe (hRARbeta2 promoter RARE) (dsDNA)
DNA 1: AGCTTAAGGGGTTCACCGAAAGTTCACTCGCAT
DNA 2: ATGCGAGTGAACTTTCGGTGAACCCCTTAAGCT
Regarding B2, the binding result is “binds” in [3]; “binds” in [4]; “binds” in data set [5]; “binds” in data set [6]; “binds” in data set [7]; “no binding” in [8]. In [9], the binding result is recorded as “no binding”.

B3: Gal4 DNA-binding domain fused to Nurr1 ligand-binding domain (amino acids 353-598) KLL(554-556)AAA (other, yeast;mouse, UniProt P04386 1-147, looked up)
chain: MKLLSSIEQACDICRLKKLKCSKEKPKCAKCLKNNWECRYSPKTKRSPLTRAHLTEVESRLERLEQLFLLIFPREDLDMILKMDSLQDIKALLTGLFVQDNVNKDAVTDRLASVETDMPLTLRQHRISATSSSEESSNKGQRQLTVSQDPSPPSPPVSLISALVRAHVDSNPAMTSLDYSRFQANPDYQMSGDDTQHIQQFYDLLTGSMEIIRGWAEKIPGFADLPKADQDLLFESAFLELFVLRLAYRSNPVEGKLIFCNGVVLHRLQCVRGFGEWIDSIVEFSSNLQNMNIDISAFSCIAALAMVTERHGLKEPKRVEELQNKIVNCLKDHVTFNNGGLNRPNYLSAAAGKLPELRTLCTQGLQRIFYLKLEDLVPPPAIIDKLFLDTLPF
notes: range 1-147;range 353-598; Two-hybrid bait, expressed in JEG3 cells; also called pCMX-Gal4-Nurr1-LBD derivative KLL(554-556)AAA
Regarding B3, the binding result in [10] was “no binding”.

B4: Gal4 DNA-binding domain fused to Nurr1 ligand-binding domain (amino acids 353-598) PEL(560-562)AAA (other, yeast;mouse, UniProt P04386 1-147, looked up)
chain: MKLLSSIEQACDICRLKKLKCSKEKPKCAKCLKNNWECRYSPKTKRSPLTRAHLTEVESRLERLEQLFLLIFPREDLDMILKMDSLQDIKALLTGLFVQDNVNKDAVTDRLASVETDMPLTLRQHRISATSSSEESSNKGQRQLTVSQDPSPPSPPVSLISALVRAHVDSNPAMTSLDYSRFQANPDYQMSGDDTQHIQQFYDLLTGSMEIIRGWAEKIPGFADLPKADQDLLFESAFLELFVLRLAYRSNPVEGKLIFCNGVVLHRLQCVRGFGEWIDSIVEFSSNLQNMNIDISAFSCIAALAMVTERHGLKEPKRVEELQNKIVNCLKDHVTFNNGGLNRPNYLSKLLGKLAAARTLCTQGLQRIFYLKLEDLVPPPAIIDKLFLDTLPF
notes: range 1-147;range 353-598; Two-hybrid bait, expressed in JEG3 cells
Turning to B4, in data set [10], the binding result was “no binding”.

B5: Gal4 DNA-binding domain fused to Nurr1 ligand-binding domain (amino acids 353-598) GKL(557-559)AAA (other, yeast;mouse, UniProt P04386 1-147, looked up)
chain: MKLLSSIEQACDICRLKKLKCSKEKPKCAKCLKNNWECRYSPKTKRSPLTRAHLTEVESRLERLEQLFLLIFPREDLDMILKMDSLQDIKALLTGLFVQDNVNKDAVTDRLASVETDMPLTLRQHRISATSSSEESSNKGQRQLTVSQDPSPPSPPVSLISALVRAHVDSNPAMTSLDYSRFQANPDYQMSGDDTQHIQQFYDLLTGSMEIIRGWAEKIPGFADLPKADQDLLFESAFLELFVLRLAYRSNPVEGKLIFCNGVVLHRLQCVRGFGEWIDSIVEFSSNLQNMNIDISAFSCIAALAMVTERHGLKEPKRVEELQNKIVNCLKDHVTFNNGGLNRPNYLSKLLAAAPELRTLCTQGLQRIFYLKLEDLVPPPAIIDKLFLDTLPF
notes: range 1-147;range 353-598; Two-hybrid bait, expressed in JEG3 cells; also called pCMX-Gal4-Nurr1-LBD derivative GKL(557-559)AAA
With B5, the binding result in [10] is on record as “no binding”.
